Drawing on patent US20240360201A1 (BIOCYTOGEN PHARMACEUTICALS BEIJING, published 2024), this text covers Kd, koff and kon for four molecules.

The target in assay [1] is T1, 6×Histidine-tagged human PD-L1 protein (hPDL1-His) (human, UniProt Q9NZQ7 19-238).
T1 construct: also called hPL1-His; His-tagged human PD-L1
Kind of assay: SPR Biacore T200; binder captured on protein A chip, hPL1-His 1.5625-200 nM as analyte. As to the method: Dissociation was monitored for 400 seconds. The chip was regenerated after the last injection of each titration with Glycine (pH 2.0, 30 μL/min for 12 seconds). As a person of ordinary skill in the art would understand, the same method with appropriate adjustments for parameters (e.g., fusion protein concentration) was performed for each tested fusion protein.
Kinetic association rates (kon) and dissociation rates (koff) were obtained simultaneously by fitting the data globally to a 1:1 Langmuir binding model (Karlsson, R. Roos, H. Fagerstam, L. Petersson, B., 1994. Methods Enzymology 6. 99-110) using Biacore™ T200 Evaluation Software 3.0. Affinities were calculated from the quotient of the kinetic rate constants (KD=koff/kon). […] Non-specific effects were not observed.
On the technique in general: In SPR one partner is held on a chip, and binding of the other changes the refractive index at the surface.

The target in assay [2] is T2, His-tagged recombinant mouse IL12RB2 protein (mIL12R-B2-His) (mouse, UniProt P97378 24-637, limits assumed).
T2 construct: bought
T2 sequence (looked up): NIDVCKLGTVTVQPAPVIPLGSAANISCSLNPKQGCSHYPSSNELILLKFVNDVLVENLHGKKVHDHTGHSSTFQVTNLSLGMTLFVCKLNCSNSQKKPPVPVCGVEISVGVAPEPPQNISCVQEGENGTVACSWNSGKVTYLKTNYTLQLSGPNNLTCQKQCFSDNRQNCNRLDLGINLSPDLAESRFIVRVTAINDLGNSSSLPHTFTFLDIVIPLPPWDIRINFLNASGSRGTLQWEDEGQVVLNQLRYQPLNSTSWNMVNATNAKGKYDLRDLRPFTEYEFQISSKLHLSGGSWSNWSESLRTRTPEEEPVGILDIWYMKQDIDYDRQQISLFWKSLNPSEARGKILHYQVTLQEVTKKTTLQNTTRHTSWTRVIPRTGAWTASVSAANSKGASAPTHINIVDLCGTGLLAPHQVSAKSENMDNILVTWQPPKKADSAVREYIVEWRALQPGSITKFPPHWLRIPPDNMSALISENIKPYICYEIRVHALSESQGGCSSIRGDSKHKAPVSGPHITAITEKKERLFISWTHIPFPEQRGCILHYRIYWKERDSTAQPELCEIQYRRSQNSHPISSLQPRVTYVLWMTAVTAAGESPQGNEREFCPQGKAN
Kind of assay: SPR Biacore T200; binder captured on protein A chip, target as analyte.

The target in another assay is T3, FcγRI-Sino (human, UniProt P12314 16-288, limits assumed).
T3 construct: bought; also called CD64 Protein, Human, Recombinant (His Tag)
T3 sequence (P12314 16-288 limits assumed): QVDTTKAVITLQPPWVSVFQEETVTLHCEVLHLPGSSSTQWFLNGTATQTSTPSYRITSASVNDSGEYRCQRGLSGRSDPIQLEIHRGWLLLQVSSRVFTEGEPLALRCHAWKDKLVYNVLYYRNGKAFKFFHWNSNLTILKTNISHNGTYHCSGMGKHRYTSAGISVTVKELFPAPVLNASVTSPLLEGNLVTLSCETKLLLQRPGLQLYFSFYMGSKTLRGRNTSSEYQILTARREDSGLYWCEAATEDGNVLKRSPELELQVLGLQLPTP
Kind of assay: SPR (Biacore T200), antibody captured on protein A sensor chip, Fc receptor as analyte; analyte range 400nm-6.25nm. An excerpt: (§1) The Fc receptors included FcγRIIB (FcγRIIB-Acro), FcγRIIA (FcγRIIA-H167-Acro), FcγRIIIA (FcγRIIIA-V176-Acro), FcγRIIIB (FcγRIIIB-NA1-Acro), FcγRI (FcγRI-Sino), and FcRn (FcRn-Acro).

A further assay deals with T4, FcγRIIIA-V176-Acro (human, UniProt P08637 17-208).
T4 construct: bought; Val at 176; also called Human Fc gamma RIIIA/CD16a (V176) Protein, His Tag
T4 sequence (P08637 17-208 F176V limits assumed): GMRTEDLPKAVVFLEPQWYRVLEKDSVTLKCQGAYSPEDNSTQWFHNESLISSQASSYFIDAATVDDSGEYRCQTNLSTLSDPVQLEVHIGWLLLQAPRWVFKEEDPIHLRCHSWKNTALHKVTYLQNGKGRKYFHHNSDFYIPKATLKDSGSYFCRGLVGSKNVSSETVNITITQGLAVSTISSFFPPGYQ
Kind of assay: SPR (Biacore T200), antibody captured on protein A sensor chip, Fc receptor as analyte; analyte range 400nm-3.125nm.
Source text: as §1

The next assay deals with T5, FcγRIIA-H167-Acro (human, UniProt P12318 36-218, limits assumed).
T5 construct: bought; His at 167; also called Human Fc gamma RIIA/CD32a (H167) Protein, His Tag
T5 sequence (looked up): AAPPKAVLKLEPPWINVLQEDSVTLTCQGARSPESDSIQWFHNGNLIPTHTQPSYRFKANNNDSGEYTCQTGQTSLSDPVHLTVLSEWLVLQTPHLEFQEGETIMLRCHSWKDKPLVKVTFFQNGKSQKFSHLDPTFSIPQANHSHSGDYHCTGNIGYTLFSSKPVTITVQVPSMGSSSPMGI
Kind of assay: SPR (Biacore T200), antibody captured on protein A sensor chip, Fc receptor as analyte; analyte range 800nm-6.25nm.
Source text: as §1

The target of another assay is T6, FcγRIIIB-NA1-Acro (human, UniProt O75015 17-200, limits assumed).
T6 construct: bought; also called Human Fc gamma RIIIB/CD16b (NA1) Protein, His Tag
T6 sequence (O75015 other isoform, or with tags, fused parts or gaps limits assumed): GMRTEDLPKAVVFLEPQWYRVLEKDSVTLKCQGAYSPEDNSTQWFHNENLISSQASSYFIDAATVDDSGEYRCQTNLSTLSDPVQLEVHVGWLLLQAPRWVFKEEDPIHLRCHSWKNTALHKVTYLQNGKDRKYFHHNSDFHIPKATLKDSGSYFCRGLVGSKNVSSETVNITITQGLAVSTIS
The description is as above.
Source text: as §1

A further assay addresses T7, FcRn (human, UniProt P55899 24-297; P61769 21-119).
T7 construct: bought; also called FcγRn; FcRn-Acro
Nature of the assay: SPR (Biacore T200), antibody captured on protein A sensor chip, FcRn-Acro as analyte; analyte range 1000nm-15.625nm.
Source text: as §1

A further assay concerns the target T8, TGFb1 (Homo sapiens (Human), UniProt P01137 279-390, Active TGF-beta-1 is a disulfide-linked homodimer of this chain; one copy is given.).
T8 construct: also called TGFb1 protein
Kind of assay: SPR; binder as capture solution, TGFb1 as analyte.

T1 sequence (Q9NZQ7 19-238 limits assumed): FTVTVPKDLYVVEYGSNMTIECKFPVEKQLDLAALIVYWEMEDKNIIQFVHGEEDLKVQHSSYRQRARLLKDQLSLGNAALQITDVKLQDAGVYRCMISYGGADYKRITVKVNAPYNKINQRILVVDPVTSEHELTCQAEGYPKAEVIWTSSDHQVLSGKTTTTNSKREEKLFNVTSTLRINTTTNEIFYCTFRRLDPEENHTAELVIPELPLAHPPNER
T8 sequence (P01137 279-390 limits assumed): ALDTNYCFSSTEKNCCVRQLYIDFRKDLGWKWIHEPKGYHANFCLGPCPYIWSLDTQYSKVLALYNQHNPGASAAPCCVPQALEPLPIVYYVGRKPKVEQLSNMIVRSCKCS
T7 sequence (P55899 24-297 limits assumed, chain 1 of 2): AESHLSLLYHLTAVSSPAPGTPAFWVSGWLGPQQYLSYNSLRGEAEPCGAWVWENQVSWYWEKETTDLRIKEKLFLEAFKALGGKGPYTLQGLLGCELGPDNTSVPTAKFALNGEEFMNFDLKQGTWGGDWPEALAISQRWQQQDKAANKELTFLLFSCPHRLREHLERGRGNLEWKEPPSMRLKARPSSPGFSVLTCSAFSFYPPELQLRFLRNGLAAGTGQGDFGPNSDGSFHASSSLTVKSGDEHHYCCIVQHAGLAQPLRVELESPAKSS
T7 sequence (P61769 21-119 limits assumed, chain 2 of 2): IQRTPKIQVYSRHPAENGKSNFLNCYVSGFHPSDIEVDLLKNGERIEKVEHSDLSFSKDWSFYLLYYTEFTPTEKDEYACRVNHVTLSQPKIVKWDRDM

B1: 3F2-mIL12-3A (antibody, IgG1)
heavy: QVQLQESGPGLVKPSETLSLTCTVSGYSITSGYNWHWIRQFPGNGLEWMGYIHHSSITNYNPSLKSRITISRDTSKNQFSLKLSSVTAADTATYYCAREGYDYDWFAYWGQGTLVTVSSASTKGPSVFPLAPSSKSTSGGTAALGCLVKDYFPEPVTVSWNSGALTSGVHTFPAVLQSSGLYSLSSVVTVPSSSLGTQTYICNVNHKPSNTKVDKKVEPKSCDKTHTCPPCPAPELLGGPSVFLFPPKPKDTLMISRTPEVTCVVVDVSHEDPEVKFNWYVDGVEVHNAKTKPREEQYNSTYRVVSVLTVLHQDWLNGKEYKCKVSNKALPAPIEKTISKAKGQPREPQVYTLPPSRDEGGGGSGGGGSVIPVSGPARCLSQSRNLLKTTDDMVKTAREKLKHYSCTAEDIDHEDITRDQTSTLKTCLPLELHKNESCLATRETSSTTRGSCLPPQKTSLMMTLCLGSIYEDLKMYQTEFQAINAALQNHNHQQIILDKGMLVAIDELMQSLNHNGETLRQKPPVGEADPYRVKMKLCILLHAFSTRVVTINRVMGYLSSAGGGGSGGGGSVSLTCLVKGFYPSDIAVEWESNGQPENNYKTTPPVLDSDGSFFLYSKLTVDKSRWQQGNVFSCSVMHEALHNHYTQKSLSLSPGK
light: DIVLTQSPDFQSVTPKEKVTITCRASQSISNNLHWYQQKPDESPKLLIKYASQSISGIPSRFSGSGSGTDFTLTINSVEAEDFAMYFCQQSKSWPFTFGQGTRLEIKRTVAAPSVFIFPPSDEQLKSGTASVVCLLNNFYPREAKVQWKVDNALQSGNSQESVTEQDSKDSTYSLSSTLTLSKADYEKHKVYACEVTHQGLSSPVTKSFNRGEC
chain: MWELEKDVYVVEVDWTPDAPGETVNLTCDTPEEDDITWTSDQRHGVIGSGKTLTITVKEFLDAGQYTCHKGGETLSHSHLLLHKKENGIWSTEILKNFKNKTFLKCEAPNYSGRFTCSWLVQRNMDLKFNIKSSSSSPDSRAVTCGMASLSAEKVTLDQRDYEKYSVSCQEDVTCPTAEETLPIELALEARQQNKYENYSTSFFIRDIIKPDPPKNLQMKPLKNSQVEVSWEYPDSWSTPHSYFSLKFFVRIQRKKEKMKETEEGCNQKGAFLVEKTSTEVQCKGGNVCVQAQDRYYNSSCSKWACVPCRVRS
notes: IgG1; IL12b co-expressed; also called 3F2-mIL12-3A-IgG1
As to B1, in assay [1], the Kd (in general, the equilibrium constant for the complex coming apart) turned out to be 0.382 nM; the koff (usually the rate constant with which the complex falls apart) amounted to 0.000952 s⁻¹; the kon (as a rule, the rate constant with which the complex forms) worked out at 2.49e+06 M⁻¹ s⁻¹. Besides, in assay [2], the dissociation constant Kd was 58.5 nM, the koff came to 0.00335 s⁻¹ and the kon was 57300 M⁻¹ s⁻¹.

B2: 3F2-mIL12-3A-mIFNa4 (antibody, IgG1)
heavy: QVQLQESGPGLVKPSETLSLTCTVSGYSITSGYNWHWIRQFPGNGLEWMGYIHHSSITNYNPSLKSRITISRDTSKNQFSLKLSSVTAADTATYYCAREGYDYDWFAYWGQGTLVTVSSASTKGPSVFPLAPSSKSTSGGTAALGCLVKDYFPEPVTVSWNSGALTSGVHTFPAVLQSSGLYSLSSVVTVPSSSLGTQTYICNVNHKPSNTKVDKKVEPKSCDKTHTCPPCPAPELLGGPSVFLFPPKPKDTLMISRTPEVTCVVVDVSHEDPEVKFNWYVDGVEVHNAKTKPREEQYNSTYRVVSVLTVLHQDWLNGKEYKCKVSNKALPAPIEKTISKAKGQPREPQVYTLPPSRDEGGGGSGGGGSVIPVSGPARCLSQSRNLLKTTDDMVKTAREKLKHYSCTAEDIDHEDITRDQTSTLKTCLPLELHKNESCLATRETSSTTRGSCLPPQKTSLMMTLCLGSIYEDLKMYQTEFQAINAALQNHNHQQIILDKGMLVAIDELMQSLNHNGETLRQKPPVGEADPYRVKMKLCILLHAFSTRVVTINRVMGYLSSAGGGGSGGGGSVSLTCLVKGFYPSDIAVEWESNGQPENNYKTTPPVLDSDGSFFLYSKLTVDKSRWQQGNVFSCSVMHEALHNHYTQKSLSLSPGKGGGGSGGGGSGGGGSGGGGSCDLPHTYNLGNKRALTVLEEMRRLPPLSCLKDRKDFGFPLEKVDNQQIQKAQAILVLRDLTQQILNLFTSKDLSATWNATLLDSFCNDLHQQLNDLKACVMQEPPLTQEDSLLAVRTYFHRITVYLRKKKHSLCAWEVIRAEVWRALSSSTNLLARLSEEKE
light: B1 light
chain: B1 chain
notes: IgG1; 3F2-mIL12-3A with mIFNa4 linked to each heavy chain C-terminus
In assay [1], B2 displayed an equilibrium dissociation constant (Kd) of 0.396 nM, a dissociation rate constant (koff) of 0.000922 s⁻¹ and a kon of 2.33e+06 M⁻¹ s⁻¹. In assay [2], the Kd is 56.5 nM, the koff was 0.00299 s⁻¹ and the on-rate constant (kon) was determined as 52900 M⁻¹ s⁻¹.

B3: PDL1-mIL7-3A (antibody, human IgG1, lambda)
heavy: EVQLLESGGGLVQPGGSLRLSCAASGFTFSSYIMMWVRQAPGKGLEWVSSIYPSGGITFYADTVKGRFTISRDNSKNTLYLQMNSLRAEDTAVYYCARIKLGTVTTVDYWGQGTLVTVSSASTKGPSVFPLAPSSKSTSGGTAALGCLVKDYFPEPVTVSWNSGALTSGVHTFPAVLQSSGLYSLSSVVTVPSSSLGTQTYICNVNHKPSNTKVDKKVEPKSCDKTHTCPPCPAPELLGGPSVFLFPPKPKDTLMISRTPEVTCVVVDVSHEDPEVKFNWYVDGVEVHNAKTKPREEQYNSTYRVVSVLTVLHQDWLNGKEYKCKVSNKALPAPIEKTISKAKGQPREPQVYTLPPSRDEGGGGSGGGGSECHIKDKEGKAYESVLMISIDELDKMTGTDSNCPNNEPNFFRKHVCDDTKEAAFLNRAARKLKQFLKMNISEEFNVHLLTVSQGTQTLVNCTSKEEKNVKEQKKNDACFLKRLLREIKTCWNKILKGSIGGGGSGGGGSVSLTCLVKGFYPSDIAVEWESNGQPENNYKTTPPVLDSDGSFFLYSKLTVDKSRWQQGNVFSCSVMHEALHNHYTQKSLSLSPGA
light: QSALTQPASVSGSPGQSITISCTGTSSDVGGYNYVSWYQQHPGKAPKLMIYDVSNRPSGVSNRFSGSKSGNTASLTISGLQAEDEADYYCSSYTSSSTRVFGTGTKVTVLGQPKANPTVTLFPPSSEELQANKATLVCLISDFYPGAVTVAWKADGSPVKAGVETTKPSKQSNNKYAASSYLSLTPEQWKSHRSYSCQVTHEGSTVEKTVAPTECS
notes: IgG1 immunocytokine
For B3, the Kd worked out at 194 nM with FcγRI-Sino; 75.5 nM in the assay with FcγRIIIA-V176-Acro; 426 nM with FcγRIIA-H167-Acro; 479 nM with FcγRIIIB-NA1-Acro; 527 nM with FcRn.

B4: M7824 (antibody, human IgG1, lambda)
heavy: not shown
light: B3 light
notes: Extracellular domain of TGFbR2 linked at the C terminal of the Fc of the anti-PDL1 antibody; also called bifunctional anti-PD-L1/TGFβ Trap fusion protein
In the assay with TGFb1, B4 registered a Kd of 83 nM, an off-rate (koff) of 0.00852 s⁻¹ and a kon of 103000 M⁻¹ s⁻¹.
